Laboratory results: doi:10.1101/2021.06.25.449899 (bioRxiv, 2021)

Biological target: the molecule itself
Assay: SEC-MALS

B1: Mycobacterium tuberculosis transcription termination factor Rho, wild type (enzyme)
chain: TDTDLITAGESTDGKPSDAAATDPPDLNADEPAGSLATMVLPELRALANRAGVKGTSGMRKNELIAAIEEIRRQANGAPAVDRSAQEHDKGDRPPSSEAPATQGEQTPTEQIDSQSQQVRPERRSATREAGPSGSGERAGTAADDTDNRQGGQQDAKTEERGTDAGGDQGGDQQASGGQQARGDEDGEARQGRRGRRFRDRRRRGERSGDGAEAELREDDVVQPVAGILDVLDNYAFVRTSGYLPGPHDVYVSMNMVRKNGMRRGDAVTGAVRVPKEGEQPNQRQKFNPLVRLDSINGGSVEDAKKRPEFGKLTPLYPNQRLRLETSTERLTTRVIDLIMPIGKGQRALIVSPPKAGKTTILQDIANAITRNNPECHLMVVLVDERPEEVTDMQRSVKGEVIASTFDRPPSDHTSVAELAIERAKRLVEQGKDVVVLLDSITRLGRAYNNASPASGRILSGGVDSTALYPPKRFLGAARNIEEGGSLTIIATAMVETGSTGDTVIFEEFKGTGNAELKLDRKIAERRVFPAVDVNPSGTRKDELLLSPDEFAIVHKLRRVLSGLDSHQAIDLLMSQLRKTKNNYEFLVQVSKTTPGSMDSD
With B1 the “stoichiometry N” value was 6.
